This note sets out measurements from PMC3365014 (PLoS ONE, 2012).

The assay addresses T1, p53 C-terminal domain (p53CTD, residues 293–393) (UniProt P04637 293-393).
T1 construct: p53 C-terminal domain, residues 293–393; 15N-labeled for NMR; also called p53(293–393); full length p53CTD; source: E. coli (C41 for the 15N-labeled protein), purified as described [23]
Kind of assay: peptide or protein array; Celluspots peptide array, peptides immobilised; 20 µM p53CTD in 1% milk in TBS-T (50 mM Tris pH 7.5, 110 mM NaCl, 0.05% Tween 20), overnight at 4°C; detected with FL-393 anti-p53 antibody. The note with it: both partners purified.

T1 sequence (P04637 293-393): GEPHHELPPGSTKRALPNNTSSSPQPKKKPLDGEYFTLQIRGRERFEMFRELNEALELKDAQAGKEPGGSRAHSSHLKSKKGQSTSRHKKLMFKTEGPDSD

B1: PKCα(271–285), peptide on the array (peptide)
peptide: ASGWYKLLNQEEGEY
notes: Protein Kinase C α isoform, residues 271–285; Immobilised on the array; source: bought: Intavis Celluspots peptide array
B1: the binding result is on record as “binds”.
